From US20160146827

How the values were obtained:
[1] = tested on: Venus-thrombin-LUMP (LUMP fused to Venus via an 11-residue linker ASLVPRGSRGS that harbors a thrombin cleavage site)
[2] = tested on: mRuby-thrombin-fLov2 (fLov2 fused to mRuby via an 11-residue linker ASLVPRGSRGS that harbors a thrombin cleavage site)

thrombin protease
FA value of LUMP in the intact substrate [1]: FA values for the 51-kDa LUMP-Venus substrate of 0.255±0.003
FA value of LUMP in the proteolyzed sensor [1]: decreases to 0.166±0.001 in the proteolyzed sensor
donor/acceptor ratio of fluorescence emission during proteolysis [1]: donor/acceptor ratio increasing ~4.7-fold
fluorescence emission spectra against time after addition of thrombin [2]: dramatic increase in fLov2 fluorescence and attenuation of the sensitized mRuby fluorescence
